Experimental data reported in IntAct's records for PubMed 21134644.

B1: Integrin beta-3 (Homo sapiens), P05106 (parent)
chain: MRARPRPRPLWATVLALGALAGVGVGGPNICTTRGVSSCQQCLAVSPMCAWCSDEALPLGSPRCDLKENLLKDNCAPESIEFPVSEARVLEDRPLSDKGSGDSSQVTQVSPQRIALRLRPDDSKNFSIQVRQVEDYPVDIYYLMDLSYSMKDDLWSIQNLGTKLATQMRKLTSNLRIGFGAFVDKPVSPYMYISPPEALENPCYDMKTTCLPMFGYKHVLTLTDQVTRFNEEVKKQSVSRNRDAPEGGFDAIMQATVCDEKIGWRNDASHLLVFTTDAKTHIALDGRLAGIVQPNDGQCHVGSDNHYSASTTMDYPSLGLMTEKLSQKNINLIFAVTENVVNLYQNYSELIPGTTVGVLSMDSSNVLQLIVDAYGKIRSKVELEVRDLPEELSLSFNATCLNNEVIPGLKSCMGLKIGDTVSFSIEAKVRGCPQEKEKSFTIKPVGFKDSLIVQVTFDCDCACQAQAEPNSHRCNNGNGTFECGVCRCGPGWLGSQCECSEEDYRPSQQDECSPREGQPVCSQRGECLCGQCVCHSSDFGKITGKYCECDDFSCVRYKGEMCSGHGQCSCGDCLCDSDWTGYYCNCTTRTDTCMSSNGLLCSGRGKCECGSCVCIQPGSYGDTCEKCPTCPDACTFKKECVECKKFDRGALHDENTCNRYCRDEIESVKELKDTGKDAVNCTYKNEDDCVVRFQYYEDSSGKSILYVVEEPECPKGPDILVVLLSVMGAILLIGLAALLIWKLLITIHDRKEFAKFEEERARAKWDTANNPLYKEATSTFTNITYRGT

Variants of: B1
Settings: with tln1_mouse Tln1, P26039
Sequence of tln1_mouse Tln1, P26039 (P26039 whole entry): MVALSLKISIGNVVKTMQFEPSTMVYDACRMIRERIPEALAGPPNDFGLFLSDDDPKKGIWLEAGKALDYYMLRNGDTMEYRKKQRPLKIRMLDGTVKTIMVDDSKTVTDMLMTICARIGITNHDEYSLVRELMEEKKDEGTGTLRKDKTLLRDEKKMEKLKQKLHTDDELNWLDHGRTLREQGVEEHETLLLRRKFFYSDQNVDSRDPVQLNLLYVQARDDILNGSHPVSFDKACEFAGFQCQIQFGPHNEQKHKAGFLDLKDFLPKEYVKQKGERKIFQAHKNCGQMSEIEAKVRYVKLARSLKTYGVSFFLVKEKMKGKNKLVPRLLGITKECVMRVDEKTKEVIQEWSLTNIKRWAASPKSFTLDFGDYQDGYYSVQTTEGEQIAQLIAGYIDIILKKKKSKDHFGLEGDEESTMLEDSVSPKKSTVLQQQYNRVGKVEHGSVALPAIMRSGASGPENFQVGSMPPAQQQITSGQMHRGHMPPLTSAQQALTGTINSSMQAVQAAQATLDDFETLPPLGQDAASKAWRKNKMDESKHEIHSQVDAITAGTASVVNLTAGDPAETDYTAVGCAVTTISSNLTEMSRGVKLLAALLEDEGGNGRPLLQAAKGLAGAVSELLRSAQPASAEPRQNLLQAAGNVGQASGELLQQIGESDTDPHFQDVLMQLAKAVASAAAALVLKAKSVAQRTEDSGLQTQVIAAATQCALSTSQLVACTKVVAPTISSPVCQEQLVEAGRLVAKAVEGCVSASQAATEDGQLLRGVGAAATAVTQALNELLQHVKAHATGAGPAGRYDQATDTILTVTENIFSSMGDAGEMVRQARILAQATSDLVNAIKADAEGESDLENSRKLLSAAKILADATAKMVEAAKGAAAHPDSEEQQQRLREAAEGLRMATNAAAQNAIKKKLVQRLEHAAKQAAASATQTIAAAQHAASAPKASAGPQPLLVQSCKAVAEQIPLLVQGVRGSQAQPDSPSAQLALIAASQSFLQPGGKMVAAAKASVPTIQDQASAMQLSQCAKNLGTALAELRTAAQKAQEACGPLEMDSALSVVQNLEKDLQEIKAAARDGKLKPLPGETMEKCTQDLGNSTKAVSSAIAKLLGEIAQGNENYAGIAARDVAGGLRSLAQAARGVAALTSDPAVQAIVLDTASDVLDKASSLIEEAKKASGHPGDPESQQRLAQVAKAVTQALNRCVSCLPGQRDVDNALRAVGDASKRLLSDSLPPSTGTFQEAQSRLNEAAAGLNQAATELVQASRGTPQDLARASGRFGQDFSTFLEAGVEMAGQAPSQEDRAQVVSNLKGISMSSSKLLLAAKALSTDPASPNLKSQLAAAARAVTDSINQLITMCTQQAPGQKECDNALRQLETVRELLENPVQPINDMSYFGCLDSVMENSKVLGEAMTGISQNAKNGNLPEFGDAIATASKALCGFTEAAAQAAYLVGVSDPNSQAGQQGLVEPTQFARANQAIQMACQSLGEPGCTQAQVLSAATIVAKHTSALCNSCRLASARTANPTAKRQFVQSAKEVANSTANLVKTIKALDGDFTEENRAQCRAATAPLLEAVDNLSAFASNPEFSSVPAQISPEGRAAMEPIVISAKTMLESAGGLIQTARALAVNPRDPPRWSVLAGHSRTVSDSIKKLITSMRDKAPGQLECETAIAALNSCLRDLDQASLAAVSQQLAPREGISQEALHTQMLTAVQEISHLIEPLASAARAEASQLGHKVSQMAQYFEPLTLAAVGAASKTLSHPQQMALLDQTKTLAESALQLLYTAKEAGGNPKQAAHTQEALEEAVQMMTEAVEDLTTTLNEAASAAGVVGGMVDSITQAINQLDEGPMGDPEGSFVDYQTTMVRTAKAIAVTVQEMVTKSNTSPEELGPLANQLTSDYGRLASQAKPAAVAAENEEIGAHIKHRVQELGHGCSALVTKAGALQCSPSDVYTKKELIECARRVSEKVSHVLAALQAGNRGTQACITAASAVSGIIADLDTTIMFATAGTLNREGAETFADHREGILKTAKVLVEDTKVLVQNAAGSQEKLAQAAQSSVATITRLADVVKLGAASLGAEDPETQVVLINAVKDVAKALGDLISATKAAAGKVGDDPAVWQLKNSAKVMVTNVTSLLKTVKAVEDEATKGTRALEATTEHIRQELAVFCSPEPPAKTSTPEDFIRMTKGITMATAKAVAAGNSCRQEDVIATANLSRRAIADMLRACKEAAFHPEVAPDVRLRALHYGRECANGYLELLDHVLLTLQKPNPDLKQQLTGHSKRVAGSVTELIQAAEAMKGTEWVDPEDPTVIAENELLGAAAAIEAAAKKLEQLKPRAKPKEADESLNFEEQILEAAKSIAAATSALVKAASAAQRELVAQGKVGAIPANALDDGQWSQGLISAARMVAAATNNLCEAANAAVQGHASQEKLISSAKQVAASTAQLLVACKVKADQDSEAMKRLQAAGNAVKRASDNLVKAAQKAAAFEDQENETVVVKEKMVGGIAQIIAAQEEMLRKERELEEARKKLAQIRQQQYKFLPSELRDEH

Variant	effect of a mutation on the interaction
Y773A	decreasing interaction
F753A;F756A	decreasing interaction
W765A	disrupting interaction
